Results on two molecules are retold here after PMC9246220.

For the series, the target named is AphB C235S-His6 (Vibrio cholerae, UniProt Q9KT56 1-299, C235S). The series is described as follows: EMSA; 0-2 uM protein; affinity similar to wild type; 20 nM DNA, 10 mM Tris-HCl pH 7.5, 1 mM EDTA, 50 mM KCl, 100 ug/ml BSA, 10 ug/ml poly dI-dC, 100 mM DTT when indicated; 20 min at 25 C; 5% PAGE in 0.5X TAE. The following applies: protein: recombinant; chain copies: 2; label: 5'-biotin; blunt.

B1: tcpP promoter probe (dsDNA)
DNA 1: GCAATTAAGTTCTCATTATCAACTGCAGAATTAGATTGCAAATAATTATATTAAAAAAAA
DNA 2: TTTTTTTTAATATAATTATTTGCAATCTAATTCTGCAGTTGATAATGAGAACTTAATTGC
Take B1: the binding result is recorded as “binds”.

B2: hmpA promoter probe (dsDNA)
DNA 1: CAATAAATTAGGTTTTGGCATGCAATCTGCTCATTAAGAAGGCTTGTGTAGAGTGGCTCA
DNA 2: TGAGCCACTCTACACAAGCCTTCTTAATGAGCAGATTGCATGCCAAAACCTAATTTATTG
On to B2, for which the binding result is “binds”.
